This note sets out measurements from article PMC7486399 (2020).

Assay [1] deals with SARS-CoV-2 spike glycoprotein receptor-binding domain (SARS-CoV-2, UniProt P0DTC2 319-541). The assay can be described thus: BLI. In general terms: BLI is a label-free optical method that tracks binding on a fibre tip over time.
Assay [2] has as its target SARS-CoV-2 spike glycoprotein S1 subunit (SARS-CoV-2, UniProt P0DTC2 14-685). As to the kind of experiment: BLI.

B1: angiotensin-converting enzyme 2 (ACE2) protein, purified (receptor)
chain: QSTIEEQAKTFLDKFNHEAEDLFYQSSLASWNYNTNITEENVQNMNNAGEKWSAFLKEQSTLAQMYPLQEIQNLTVKLQLQALQQNGSSVLSEDKSKRLNTILNTMSTIYSTGKVCNPNNPQECLLLDPGLNEIMEKSLDYNERLWAWEGWRSEVGKQLRPLYEEYVVLKNEMARANHYKDYGDYWRGNYEVNGVDGYDYNRDQLIEDVERTFEEIKPLYEHLHAYVRAKLMNAYPSYISPTGCLPAHLLGDMWGRFWTNLYSLTVPFGQKPNIDVTDAMVNQAWNAQRIFKEAEKFFVSVGLPNMTQGFWENSMLTDPGNVQKVVCHPTAWDLGKGDFRIIMCTKVTMDDFLTAHHEMGHIQYDMAYAAQPFLLRNGANEGFHEAVGEIMSLSAATPKHLKSIGLLSPDFQEDNETEINFLLKQALTIVGTLPFTYMLEKWRWMVFKGEIPKDQWMKKWWEMKREIVGVVEPVPHDETYCDPASLFHVSNDYSFIRYYTRTLYQFQFQEALCQAAKHEGPLHKCDISNSTEAGQKLLNMLKLGKSEPWTLALENVVGAKNMNVRPLLNYFEPLFTWLKDQNKNSFVGWSTDWSPYADQSIKVRISLKSALGDKAYEWNDNEMYLFRSSVAYAMRTYFLEIKHQTILFGEEDVRVADLKPRISFNFYVTAPKNVSDIIPRTEVEEAIRISRSRINDAFRLNDNSLEFLGIQTTLAPPYQSPVT
The Kd is the constant that tells how readily two partners part at equilibrium. Higher therefore signals lower affinity. For the molecule B1, the Kd in assay [1] turned out to be 149 nM; in assay [2] it was 146 nM.
